Laboratory results taken from US20250042976A1 (ROCHE DIAGNOSTICS OPERATIONS, published 2025).

Assays:
RBD Omikron = RBD Omikron (SARS-CoV-2, Omicron variant)
RBD-L452Q F490S = RBD-L452Q F490S (SARS-CoV-2, UniProt P0DTC2)
RBD-E484K = RBD-E484K (SARS-CoV-2, UniProt P0DTC2)
RBD-E406W = RBD-E406W (SARS-CoV-2, UniProt P0DTC2)

B1: Antibody 1F12 (antibody, V domains shown)
VH: QSLEESGGDLVKPGASLTLTCTASGFSFSNNYVMCWVRQAPGKGLEWIGCINTGSGSTYYATWAKGRFTISKISSTTVTLQMTSLTAADTATYFCARSTTYYNYIGGNWIYVMDGFNLWGPGTLVPVSS
VL: AQVLTQTPSSVSEPVGGTVTINCQASENIYSSLAWYQQKPGQPPKLLIYDASDLASGVPSRFSGSGSGTEYTLTISGVECDDAATYYCQQGYTVDNIDNTFGGGTEVVVK
For B1, the Kd (RBD Omikron) was 0.28 nM, the koff (RBD Omikron) was 0.0012 s⁻¹ and the kon (RBD Omikron) was 2e+06 M⁻¹ s⁻¹. For the same binder, the Kd (RBD-L452Q F490S) was 0.33 nM, the koff (RBD-L452Q F490S) was 0.0019 s⁻¹ and the kon (RBD-L452Q F490S) was 5.8e+06 M⁻¹ s⁻¹. For the same binder, the Kd (RBD-E484K) was 0.31 nM, the koff (RBD-E484K) was 0.00081 s⁻¹ and the kon (RBD-E484K) was 2.6e+06 M⁻¹ s⁻¹. The Kd (RBD-E406W) was 0.75 nM, the koff (RBD-E406W) was 0.0016 s⁻¹ and the kon (RBD-E406W) was 2.1e+06 M⁻¹ s⁻¹.
